The target in the experiment is T1, Human phosphatase PRL3, amino acids 1–169 (wild type) (human, UniProt O75365 1-169).
T1 construct: N-terminal extension Gly-Ser-His left after thrombin cleavage of the His tag; phosphatase of regenerating liver 3 (PRL3), human, amino acids 1-169; also called PRL3-wt; wild-type PRL3; not shown: His6, N-terminal, cleaved
Put plainly: ITC; syringe 160 μM PRL2 or PRL3, cell 16 μM CNNM3 CBS-pair domain as a GST fusion; 22 °C; 30 injections of 10 μl; fitted to a single set of identical sites. The following applies: both partners purified.

Usually Kd stands for the equilibrium constant for the complex coming apart. A lower Kd goes with a tighter complex.

T1 sequence (O75365 other isoform, or with tags, fused parts or gaps): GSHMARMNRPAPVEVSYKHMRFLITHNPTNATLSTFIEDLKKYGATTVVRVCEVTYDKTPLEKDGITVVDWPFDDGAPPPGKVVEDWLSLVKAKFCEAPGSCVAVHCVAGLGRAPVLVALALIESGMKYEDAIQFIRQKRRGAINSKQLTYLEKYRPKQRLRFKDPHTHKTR

B1: CNNM3 CBS-pair domain as a GST fusion (domain or fragment, human)
chain: LRCRTVEDVLTPLEDCFMLDASTVLDFGVLASIMQSGHTRIPVYEEERSNIVDMLYLKDLAFVDPEDCTPLSTITRFYNHPLHFVFNDTKLDAVLEEFKRGKSHLAIVQKVNNEGEGDPFYEVLGLVTLEDVIEEIIRSEILDE
notes: CBS-pair domain of human CNNM3; also called CBS-pair (Bateman) domain of CNNM3
Turning to B1, the Kd stood at 11 nM.

Values taken from publication PMC5427921, “PRL3 phosphatase active site is required for binding the putative magnesium transporter CNNM3” (Scientific Reports, 2017).
